According to paper PMC2114693:
pIC50: −log10 of the molar value.

Biological target: human erythrocyte adducin (human) (UniProt P35611)
Assay: co-sedimentation

Sequence of human erythrocyte adducin (human) (P35611 whole entry, chain 1 of 2): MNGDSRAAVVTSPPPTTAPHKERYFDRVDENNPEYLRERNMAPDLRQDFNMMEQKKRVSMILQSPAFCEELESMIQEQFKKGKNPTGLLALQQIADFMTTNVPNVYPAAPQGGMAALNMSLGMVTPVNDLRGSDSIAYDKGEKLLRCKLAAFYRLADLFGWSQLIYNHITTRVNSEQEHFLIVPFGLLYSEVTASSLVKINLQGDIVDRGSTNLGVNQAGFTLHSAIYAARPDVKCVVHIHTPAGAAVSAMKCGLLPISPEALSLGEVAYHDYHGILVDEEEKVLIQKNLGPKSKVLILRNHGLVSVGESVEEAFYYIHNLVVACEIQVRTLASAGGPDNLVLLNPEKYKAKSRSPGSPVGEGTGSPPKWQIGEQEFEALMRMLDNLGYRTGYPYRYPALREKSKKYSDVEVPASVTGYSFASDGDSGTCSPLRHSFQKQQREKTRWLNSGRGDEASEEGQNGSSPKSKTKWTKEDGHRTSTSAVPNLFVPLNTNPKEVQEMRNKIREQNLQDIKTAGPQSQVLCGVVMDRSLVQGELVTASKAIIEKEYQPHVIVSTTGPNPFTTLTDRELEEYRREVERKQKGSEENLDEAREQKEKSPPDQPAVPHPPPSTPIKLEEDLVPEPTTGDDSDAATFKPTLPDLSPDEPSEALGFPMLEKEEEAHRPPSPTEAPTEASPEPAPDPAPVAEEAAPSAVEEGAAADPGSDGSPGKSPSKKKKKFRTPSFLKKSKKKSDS
Sequence of human erythrocyte adducin (human) (P35612 whole entry, chain 2 of 2, further chain): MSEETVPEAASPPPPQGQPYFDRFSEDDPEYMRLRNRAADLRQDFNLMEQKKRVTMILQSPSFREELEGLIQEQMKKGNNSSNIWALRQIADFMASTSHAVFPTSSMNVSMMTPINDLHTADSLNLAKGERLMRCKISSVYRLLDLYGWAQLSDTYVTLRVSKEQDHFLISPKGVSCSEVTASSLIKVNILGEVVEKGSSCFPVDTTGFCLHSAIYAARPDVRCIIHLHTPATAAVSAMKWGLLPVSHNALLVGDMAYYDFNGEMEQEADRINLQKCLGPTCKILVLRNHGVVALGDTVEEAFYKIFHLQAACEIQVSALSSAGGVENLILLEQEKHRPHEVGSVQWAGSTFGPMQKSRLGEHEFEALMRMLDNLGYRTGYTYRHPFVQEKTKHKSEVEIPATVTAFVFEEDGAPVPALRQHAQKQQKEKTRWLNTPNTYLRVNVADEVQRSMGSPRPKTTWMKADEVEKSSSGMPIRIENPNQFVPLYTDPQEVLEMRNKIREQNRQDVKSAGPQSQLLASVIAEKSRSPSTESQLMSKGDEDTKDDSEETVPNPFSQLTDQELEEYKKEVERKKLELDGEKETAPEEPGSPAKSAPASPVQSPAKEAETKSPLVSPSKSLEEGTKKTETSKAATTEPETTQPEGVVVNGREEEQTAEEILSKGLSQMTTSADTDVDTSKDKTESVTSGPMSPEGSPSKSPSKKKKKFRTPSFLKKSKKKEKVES

**Q.** With “bovine brain calmodulin (from UniProt P62157 1-149) (natural protein)” as the substance, how does the pIC50 read?
**A.** 5.40
